The text below walks through data of patent US20210130436A1.

Common to all, as to assay: cell-based or functional assay
For test [1], the target named is CD28 on Jurkat/IL2 reporter cells (human) (UniProt P10747).
The target of test [2] is PD-L1 on K562/OKT3/PD-L1 artificial antigen presenting cells (UniProt Q9NZQ7).
For another test, the target named is CD28 (human) (UniProt P10747).
The target of the next test is PD-L1 (human) (UniProt Q9NZQ7).
Sequence of PD-L1 (human) (Q9NZQ7 19-290): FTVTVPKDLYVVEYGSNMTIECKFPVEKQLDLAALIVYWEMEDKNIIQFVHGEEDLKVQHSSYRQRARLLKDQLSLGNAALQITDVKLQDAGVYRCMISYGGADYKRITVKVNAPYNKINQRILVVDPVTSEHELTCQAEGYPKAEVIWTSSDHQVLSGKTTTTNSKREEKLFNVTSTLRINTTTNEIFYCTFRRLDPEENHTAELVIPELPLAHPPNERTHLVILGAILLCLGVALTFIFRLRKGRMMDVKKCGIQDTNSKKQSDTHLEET

Sequence of PD-L1 on K562/OKT3/PD-L1 artificial antigen presenting cells (Q9NZQ7 19-290): as above

For “CD80 E35D/T41S/M43I/M47V/A71G IgV-Fc (inert) (Fc fusion)”, in test [1], the Fold Increase over WT CD80-IgV-Fc (RLU, Jurkat/IL2 + K562/OKT3/PD-L1 reporter assay, 50 nM) was determined as 6.2 fold and the Relative Luciferase Units (RLU), Jurkat/IL2 + K562/OKT3/PD-L1 reporter assay, CD80-Fc Conc 50 nM was 1270 RLU. Also, in test [2], the Fold Increase over WT CD80-IgV-Fc (RLU, Jurkat/IL2 + K562/OKT3/PD-L1 reporter assay, 50 nM) came to 6.2 fold and the Relative Luciferase Units (RLU), Jurkat/IL2 + K562/OKT3/PD-L1 reporter assay, CD80-Fc Conc 50 nM worked out at 1270 RLU.

With “CD80 E35D/T41S/M43V/M47I/L70M/A71G IgV-Fc (inert) (Fc fusion)”, the Fold Increase over WT CD80-IgV-Fc (RLU, Jurkat/IL2 + K562/OKT3/PD-L1 reporter assay, 50 nM) in test [1] and in test [2] was 8.1 fold throughout. Moreover, the Relative Luciferase Units (RLU), Jurkat/IL2 + K562/OKT3/PD-L1 reporter assay, CD80-Fc Conc 50 nM in test [1] and in test [2] was 1670 RLU each time.

For “CD80 E35D/T41S/M47V/A71G/K89N IgV-Fc (inert) (Fc fusion)”, the Fold Increase over WT CD80-IgV-Fc (RLU, Jurkat/IL2 + K562/OKT3/PD-L1 reporter assay, 50 nM) in test [1] and in test [2] was 5 fold each time. Moreover, the Relative Luciferase Units (RLU), Jurkat/IL2 + K562/OKT3/PD-L1 reporter assay, CD80-Fc Conc 50 nM in test [1] and in test [2] was 1020 RLU throughout.

For “CD80 E35D/T41S/M47V/L97Q IgV-Fc (inert) (Fc fusion)”, in test [1], the Fold Increase over WT CD80-IgV-Fc (RLU, Jurkat/IL2 + K562/OKT3/PD-L1 reporter assay, 50 nM) amounted to 2.9 fold and the Relative Luciferase Units (RLU), Jurkat/IL2 + K562/OKT3/PD-L1 reporter assay, CD80-Fc Conc 50 nM was determined as 594 RLU. For the same substance, in test [2], the Fold Increase over WT CD80-IgV-Fc (RLU, Jurkat/IL2 + K562/OKT3/PD-L1 reporter assay, 50 nM) is 2.9 fold and the Relative Luciferase Units (RLU), Jurkat/IL2 + K562/OKT3/PD-L1 reporter assay, CD80-Fc Conc 50 nM is 594 RLU.

As for “CD80 E35D/Y53H/A71G/D90G/L97R IgV-Fc (inert) (Fc fusion)”, the Fold Increase over WT CD80-IgV-Fc (RLU, Jurkat/IL2 + K562/OKT3/PD-L1 reporter assay, 50 nM) in test [1] and in test [2] was 8.4 fold throughout. The Relative Luciferase Units (RLU), Jurkat/IL2 + K562/OKT3/PD-L1 reporter assay, CD80-Fc Conc 50 nM in test [1] and in test [2] was 1720 RLU in each case.

In the case of “CD80 H18Y/A26E/E35D/M47L/L85Q/D90G IgV-Fc (inert) (Fc fusion)”, in test [1], the Fold Increase over WT CD80-IgV-Fc (RLU, Jurkat/IL2 + K562/OKT3/PD-L1 reporter assay, 50 nM) amounted to 7.3 fold and the Relative Luciferase Units (RLU), Jurkat/IL2 + K562/OKT3/PD-L1 reporter assay, CD80-Fc Conc 50 nM was 1510 RLU. Also, in test [2], the Fold Increase over WT CD80-IgV-Fc (RLU, Jurkat/IL2 + K562/OKT3/PD-L1 reporter assay, 50 nM) was found to be 7.3 fold and the Relative Luciferase Units (RLU), Jurkat/IL2 + K562/OKT3/PD-L1 reporter assay, CD80-Fc Conc 50 nM was 1510 RLU.

Consider “CD80 I30V/E35D/M47V/A71G/A91V IgV-Fc (inert) (Fc fusion)”, for which, in test [1], the Fold Increase over WT CD80-IgV-Fc (RLU, Jurkat/IL2 + K562/OKT3/PD-L1 reporter assay, 50 nM) was determined as 7.3 fold and the Relative Luciferase Units (RLU), Jurkat/IL2 + K562/OKT3/PD-L1 reporter assay, CD80-Fc Conc 50 nM turned out to be 1500 RLU. Besides, in test [2], the Fold Increase over WT CD80-IgV-Fc (RLU, Jurkat/IL2 + K562/OKT3/PD-L1 reporter assay, 50 nM) came out at 7.3 fold and the Relative Luciferase Units (RLU), Jurkat/IL2 + K562/OKT3/PD-L1 reporter assay, CD80-Fc Conc 50 nM came to 1500 RLU.

Take “CD80 Q27H/E35D/D46V/M47L/A71G IgV-Fc (inert) (Fc fusion)”: the Fold Increase over WT CD80-IgV-Fc (RLU, Jurkat/IL2 + K562/OKT3/PD-L1 reporter assay, 50 nM) in test [1] and in test [2] was 4.7 fold each time. For the same substance, the Relative Luciferase Units (RLU), Jurkat/IL2 + K562/OKT3/PD-L1 reporter assay, CD80-Fc Conc 50 nM in test [1] and in test [2] was 978 RLU each time.

Consider “CD80 Q27H/E35D/M47I/L85Q/D90G IgV-Fc (inert) (Fc fusion)”, for which the Fold Increase over WT CD80-IgV-Fc (RLU, Jurkat/IL2 + K562/OKT3/PD-L1 reporter assay, 50 nM) in test [1] and in test [2] was 6.4 fold in each case. Also, the Relative Luciferase Units (RLU), Jurkat/IL2 + K562/OKT3/PD-L1 reporter assay, CD80-Fc Conc 50 nM in test [1] and in test [2] was 1310 RLU in each case.

As for “variant CD80 IgV-Fc (inert) E35D/M47I/L70M (Fc fusion)”, in the test with CD28 (human), the IL-2-luciferase RLU, Jurkat + CHO/OKT3/PD-L1 aAPC, 0.6 nM turned out to be 1000 RLU; the IL-2-luciferase RLU, Jurkat + CHO/OKT3/PD-L1 aAPC, 1.9 nM amounted to 1640 RLU; the IL-2-luciferase RLU, Jurkat + CHO/OKT3/PD-L1 aAPC, 5.6 nM came to 2350 RLU; the IL-2-luciferase RLU, Jurkat + CHO/OKT3/PD-L1 aAPC, 16.7 nM came to 2630 RLU. Further, in the test with CD28 (human), the IL-2-luciferase RLU, Jurkat + CHO/OKT3/PD-L1 aAPC, 50 nM was found to be 2630 RLU; the IL-2-luciferase RLU, Jurkat + CHO/OKT3 aAPC (no PD-L1), 5.6 nM stood at 549 RLU; the IL-2-luciferase RLU, Jurkat + CHO/OKT3 aAPC (no PD-L1), 16.7 nM was determined as 544 RLU; the IL-2-luciferase RLU, Jurkat + CHO/OKT3 aAPC (no PD-L1), 50 nM stood at 600 RLU. Moreover, in the test with PD-L1 (human), the IL-2 release, primary T cells; K562/OKT3/PD-L1; 1 nM was 311; the IL-2 release, primary T cells; K562/OKT3/PD-L1; 10 nM worked out at 6980; the IL-2 release, primary T cells; K562/OKT3/PD-L1; 100 nM amounted to 8390.

As to “variant CD80 IgV-Fc (inert) E35D/M47L (Fc fusion)”, in the test with CD28 (human), the IL-2-luciferase RLU, Jurkat + CHO/OKT3/PD-L1 aAPC, 0.6 nM turned out to be 1040 RLU; the IL-2-luciferase RLU, Jurkat + CHO/OKT3/PD-L1 aAPC, 1.9 nM turned out to be 1730 RLU; the IL-2-luciferase RLU, Jurkat + CHO/OKT3/PD-L1 aAPC, 5.6 nM came out at 2580 RLU; the IL-2-luciferase RLU, Jurkat + CHO/OKT3/PD-L1 aAPC, 16.7 nM is 3070 RLU. In the test with CD28 (human), the IL-2-luciferase RLU, Jurkat + CHO/OKT3 aAPC (no PD-L1), 5.6 nM is 633 RLU; the IL-2-luciferase RLU, Jurkat + CHO/OKT3 aAPC (no PD-L1), 16.7 nM is 731 RLU; the IL-2-luciferase RLU, Jurkat + CHO/OKT3 aAPC (no PD-L1), 50 nM was 817 RLU. In the test with PD-L1 (human), this substance gave an IL-2 release, primary T cells; K562/OKT3/PD-L1; 1 nM of 268; an IL-2 release, primary T cells; K562/OKT3/PD-L1; 10 nM of 2700; an IL-2 release, primary T cells; K562/OKT3/PD-L1; 100 nM of 7530.

“variant CD80 IgV-Fc (inert) E35G/K54E/A71D/L72P (Fc fusion)”: in the test with CD28 (human), the IL-2-luciferase RLU, Jurkat + CHO/OKT3/PD-L1 aAPC, 0.6 nM worked out at 529 RLU; the IL-2-luciferase RLU, Jurkat + CHO/OKT3/PD-L1 aAPC, 1.9 nM amounted to 489 RLU; the IL-2-luciferase RLU, Jurkat + CHO/OKT3/PD-L1 aAPC, 5.6 nM came to 554 RLU; the IL-2-luciferase RLU, Jurkat + CHO/OKT3/PD-L1 aAPC, 16.7 nM amounted to 504 RLU. In the test with CD28 (human), the IL-2-luciferase RLU, Jurkat + CHO/OKT3/PD-L1 aAPC, 50 nM came out at 476 RLU; the IL-2-luciferase RLU, Jurkat + CHO/OKT3 aAPC (no PD-L1), 5.6 nM came out at 417 RLU; the IL-2-luciferase RLU, Jurkat + CHO/OKT3 aAPC (no PD-L1), 16.7 nM was determined as 475 RLU; the IL-2-luciferase RLU, Jurkat + CHO/OKT3 aAPC (no PD-L1), 50 nM stood at 440 RLU. Besides, the IL-2 release, primary T cells; K562/OKT3/PD-L1; 100 nM with PD-L1 (human) was 59.
